Reference: patent publication US20190241648A1 (STATEN BIOTECHNOLOGY B V, published 2019)
Ends that are not written are not given here.

Key:
Experiment in all cases: peptide microarray
ApoC3 peptide … S49A = biological target: T1, ApoC3 peptide … S49A (human, not fully specified (bridges); also: cyclic constrained)
T1 peptide: ARGWVTDGFSALK
Text: (§1) Amino acids G41 and G46 were highly conserved; substitution of G41 by E, N or Q caused a decrease of spot intensities by ˜70% or higher, whereas exchange of G46 by N was hardly tolerated and resulting in 90% reduced spot intensities. […] Amino acid positions V43, D45 and K51 were also well conserved with a clear preference for the wild type amino acids and a certain tolerance particularly for conservative exchanges by Y, F and I (V43), A, E and K (D45) as well as by R (K51). […] Replacement of V43 by Y, however, increased spot intensity by two fold. Amino acid positions W42 and 48S were poorly conserved or even variable; both positions were susceptible for only a number of amino acid exchanges, and exchange by F, S and T (W42) or by E (S48) even caused a two- to three-fold increase of spot intensity. Amino acid positions A39 and R40 were variable.
(§2) Pre: staining of one of the ApoC3 peptide microarrays was done with the secondary antibody goat anti-human IgG (Fe) DyLight680 (1:5000) and control antibody mouse monoclonal anti-HA (12CA5) DyLight800 (1:2000) to investigate background interactions of the secondary antibody with the antigen-derived peptides that could interfere with the main assays. Subsequent incubation of other ApoC3 peptide microarrays with antibody samples was followed by staining with secondary and control antibodies as well as read-out at scanning intensities of 7/7 (red/green). The additional HA peptides framing the peptide arrays were stained as internal quality control to confirm the assay quality and the peptide microarray integrity.

ApoC3 peptide … L50A = biological target: T2, ApoC3 peptide … L50A (human, not fully specified; cyclic constrained)
T2 peptide: ARGWVTDGFSSAK
Text: as §1, §2

ApoC3 peptide … G41C = biological target: T3, ApoC3 peptide … G41C (human, also: cyclic constrained)
T3 peptide: ARCWVTDGFSSLK
Text: as §1, §2

ApoC3 peptide … L50C = biological target: T4, ApoC3 peptide … L50C (human, not fully specified; cyclic constrained)
T4 peptide: ARGWVTDGFSSCK
Text: as §1, §2

ApoC3 peptide … A39D = biological target: T5, ApoC3 peptide … A39D (human, cyclic constrained)
T5 peptide: DRGWVTDGFSSLK
Text: as §1, §2

ApoC3 peptide … F47D = biological target: T6, ApoC3 peptide … F47D (human, not fully specified (bridges); also: cyclic constrained)
T6 peptide: ARGWVTDGDSSLK
Text: as §1, §2

ApoC3 peptide … D45F = biological target: T7, ApoC3 peptide … D45F (human, not fully specified (bridges); also: cyclic constrained)
T7 peptide: ARGWVTFGFSSLK
Text: as §1, §2

ApoC3 peptide … S48F = biological target: T8, ApoC3 peptide … S48F (human, not fully specified; cyclic constrained)
T8 peptide: ARGWVTDGFFSLK
Text: as §1, §2

ApoC3 peptide … W42G = biological target: T9, ApoC3 peptide … W42G (human, not fully specified (bridges); also: cyclic constrained)
T9 peptide: ARGGVTDGFSSLK
Text: as §1, §2

ApoC3 peptide … S48G = biological target: T10, ApoC3 peptide … S48G (human, not fully specified; cyclic constrained)
T10 peptide: ARGWVTDGFGSLK
Text: as §1, §2

ApoC3 peptide … K51H = biological target: T11, ApoC3 peptide … K51H (human, not fully specified; cyclic constrained)
T11 peptide: ARGWVTDGFSSLH
Text: as §1, §2

ApoC3 peptide … F47I = biological target: T12, ApoC3 peptide … F47I (human, not fully specified (bridges); also: cyclic constrained)
T12 peptide: ARGWVTDGISSLK
Text: as §1, §2

ApoC3 peptide … R40K = biological target: T13, ApoC3 peptide … R40K (human, not fully specified (bridges); also: cyclic constrained)
T13 peptide: AKGWVTDGFSSLK
Text: as §1, §2

ApoC3 peptide … G46K = biological target: T14, ApoC3 peptide … G46K (human, not fully specified (bridges); also: cyclic constrained)
T14 peptide: ARGWVTDKFSSLK
Text: as §1, §2

ApoC3 peptide … K51L = biological target: T15, ApoC3 peptide … K51L (human, not fully specified; cyclic constrained)
T15 peptide: ARGWVTDGFSSLL
Text: as §1, §2

ApoC3 peptide … G41M = biological target: T16, ApoC3 peptide … G41M (human, also: cyclic constrained)
T16 peptide: ARMWVTDGFSSLK
Text: as §1, §2

ApoC3 peptide … W42M = biological target: T17, ApoC3 peptide … W42M (human, not fully specified (bridges); also: cyclic constrained)
T17 peptide: ARGMVTDGFSSLK
Text: as §1, §2

ApoC3 peptide … K51M = biological target: T18, ApoC3 peptide … K51M (human, not fully specified; cyclic constrained)
T18 peptide: ARGWVTDGFSSLM
Text: as §1, §2

ApoC3 peptide … V43N = biological target: T19, ApoC3 peptide … V43N (human, not fully specified; cyclic constrained)
T19 peptide: ARGWNTDGFSSLK
Text: as §1, §2

ApoC3 peptide … G46N = biological target: T20, ApoC3 peptide … G46N (human, not fully specified (bridges); also: cyclic constrained)
T20 peptide: ARGWVTDNFSSLK
Text: as §1, §2

ApoC3 peptide … A39Q = biological target: T21, ApoC3 peptide … A39Q (human, not fully specified (bridges); also: cyclic constrained)
T21 peptide: QRGWVTDGFSSLK
Text: as §1, §2

ApoC3 peptide … R40Q = biological target: T22, ApoC3 peptide … R40Q (human, not fully specified (bridges); also: cyclic constrained)
T22 peptide: AQGWVTDGFSSLK
Text: as §1, §2

ApoC3 peptide … L50Q = biological target: T23, ApoC3 peptide … L50Q (human, not fully specified (bridges); also: cyclic constrained)
T23 peptide: ARGWVTDGFSSQK
Text: as §1, §2

ApoC3 peptide … G41S = biological target: T24, ApoC3 peptide … G41S (human, also: cyclic constrained)
T24 peptide: ARSWVTDGFSSLK
Text: as §1, §2

ApoC3 peptide … F47V = biological target: T25, ApoC3 peptide … F47V (human, also: cyclic constrained)
T25 peptide: ARGWVTDGVSSLK
Text: as §1, §2

ApoC3 peptide … S49V = biological target: T26, ApoC3 peptide … S49V (human, not fully specified (bridges); also: cyclic constrained)
T26 peptide: ARGWVTDGFSVLK
Text: as §1, §2

ApoC3 peptide … S49W = biological target: T27, ApoC3 peptide … S49W (human, not fully specified (bridges); also: cyclic constrained)
T27 peptide: ARGWVTDGFSWLK
Text: as §1, §2

ApoC3 peptide … W42Y = biological target: T28, ApoC3 peptide … W42Y (human, not fully specified (bridges); also: cyclic constrained)
T28 peptide: ARGYVTDGFSSLK
Text: as §1, §2

ApoC3 peptide … V43Y = biological target: T29, ApoC3 peptide … V43Y (human, not fully specified (bridges); also: cyclic constrained)
T29 peptide: ARGWYTDGFSSLK
Text: as §1, §2

ApoC3 peptide … S48Y = biological target: T30, ApoC3 peptide … S48Y (human, not fully specified (bridges); also: cyclic constrained)
T30 peptide: ARGWVTDGFYSLK
Text: as §1, §2

B1: anti-ApoC3 antibody 14C7 (antibody, V domains shown)
VH: QVQVQESGPGLVKPSQTLSLTCTVSGGSITTNSYYWSWIRQPPGKGLEWMGAIDYSGDTYYSPSLKSRTSISRDTSKNQFTLQLTSVTPEDTAVYYCVSRIPTGEYWGQGTQVTVSS
VL: QTVVTQEPSLSVSPGGTVTLTCGLNSGSVTSSNYPDWYQQTPGQAPRLLIYNTNSRHSGVPSRFSGSISGNKAALTITGAQPEDEADYYCALYMGSDSVVFGGGTHLTVL
notes: it was detected with goat anti-human IgG (Fc); also called mAb 14C7; llama antibody 14C7
ApoC3 peptide … S49A
  % of binding to wild-type peptide: 2.43%
ApoC3 peptide … L50A
  % of binding to wild-type peptide: 0%
ApoC3 peptide … G41C
  % of binding to wild-type peptide: 14.8%
ApoC3 peptide … L50C
  % of binding to wild-type peptide: 0%
ApoC3 peptide … A39D
  % of binding to wild-type peptide: 50.7%
ApoC3 peptide … F47D
  % of binding to wild-type peptide: 0%
ApoC3 peptide … D45F
  % of binding to wild-type peptide: 0%
ApoC3 peptide … S48F
  % of binding to wild-type peptide: 9.29%
ApoC3 peptide … W42G
  % of binding to wild-type peptide: 107%
ApoC3 peptide … S48G
  % of binding to wild-type peptide: 3.7%
ApoC3 peptide … K51H
  % of binding to wild-type peptide: 2.43%
ApoC3 peptide … F47I
  % of binding to wild-type peptide: 0%
ApoC3 peptide … R40K
  % of binding to wild-type peptide: 58.1%
ApoC3 peptide … G46K
  % of binding to wild-type peptide: 0.24%
ApoC3 peptide … K51L
  % of binding to wild-type peptide: 0.33%
ApoC3 peptide … G41M
  % of binding to wild-type peptide: 18.7%
ApoC3 peptide … W42M
  % of binding to wild-type peptide: 79.4%
ApoC3 peptide … K51M
  % of binding to wild-type peptide: 11.1%
ApoC3 peptide … V43N
  % of binding to wild-type peptide: 1.36%
ApoC3 peptide … G46N
  % of binding to wild-type peptide: 10.4%
ApoC3 peptide … A39Q
  % of binding to wild-type peptide: 104%
ApoC3 peptide … R40Q
  % of binding to wild-type peptide: 85.8%
ApoC3 peptide … L50Q
  % of binding to wild-type peptide: 0.12%
ApoC3 peptide … G41S
  % of binding to wild-type peptide: 18.7%
ApoC3 peptide … F47V
  % of binding to wild-type peptide: 0.06%
ApoC3 peptide … S49V
  % of binding to wild-type peptide: 0.59%
ApoC3 peptide … S49W
  % of binding to wild-type peptide: 0.27%
ApoC3 peptide … W42Y
  % of binding to wild-type peptide: 149%
ApoC3 peptide … V43Y
  % of binding to wild-type peptide: 230%
ApoC3 peptide … S48Y
  % of binding to wild-type peptide: 5.83%
